Target: T1, GST-MTR4-∆N (human, UniProt P42285 75-1042)
T1 construct: Tag is cleavable with 3C protease; kept for the GST pull-downs; also called GST-tagged MTR4∆N; source: E. coli BL21 star (DE3), purified (Ni-NTA, heparin, SEC); not shown: 6xHis-GST, N-terminal, kept
T1 sequence (looked up): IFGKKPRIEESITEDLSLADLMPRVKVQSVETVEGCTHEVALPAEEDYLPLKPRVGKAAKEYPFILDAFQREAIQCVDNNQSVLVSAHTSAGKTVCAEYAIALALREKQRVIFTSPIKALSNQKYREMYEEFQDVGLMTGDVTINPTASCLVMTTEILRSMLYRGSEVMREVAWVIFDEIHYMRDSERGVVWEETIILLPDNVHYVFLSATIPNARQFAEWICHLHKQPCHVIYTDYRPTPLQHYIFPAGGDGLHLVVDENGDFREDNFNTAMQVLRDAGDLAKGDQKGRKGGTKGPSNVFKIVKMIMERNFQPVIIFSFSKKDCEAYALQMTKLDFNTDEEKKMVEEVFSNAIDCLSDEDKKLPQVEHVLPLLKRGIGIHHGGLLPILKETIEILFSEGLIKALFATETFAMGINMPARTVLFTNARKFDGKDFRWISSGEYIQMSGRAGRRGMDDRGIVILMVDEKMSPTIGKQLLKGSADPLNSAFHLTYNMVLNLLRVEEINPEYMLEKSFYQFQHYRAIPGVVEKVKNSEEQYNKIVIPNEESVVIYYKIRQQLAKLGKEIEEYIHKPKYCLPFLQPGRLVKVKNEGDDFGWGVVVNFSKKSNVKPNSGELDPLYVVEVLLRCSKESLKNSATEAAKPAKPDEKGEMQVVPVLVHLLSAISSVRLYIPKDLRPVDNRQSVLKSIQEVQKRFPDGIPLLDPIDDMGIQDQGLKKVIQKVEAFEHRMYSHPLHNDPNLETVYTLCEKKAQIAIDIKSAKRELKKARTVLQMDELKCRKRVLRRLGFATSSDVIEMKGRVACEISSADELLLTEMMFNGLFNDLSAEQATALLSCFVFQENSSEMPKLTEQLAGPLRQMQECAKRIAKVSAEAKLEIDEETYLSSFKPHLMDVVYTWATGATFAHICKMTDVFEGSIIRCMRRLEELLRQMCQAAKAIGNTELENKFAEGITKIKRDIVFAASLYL
Assay: pull-down; GST-tagged MTR4 constructs as bait, Trx-NVL constructs as prey, glutathione sepharose; 10 μM GST-MTR4∆N with 20 μM Trx-NVL constructs; 50 mM Hepes pH 7.5, 150 mM NaCl, 5% glycerol, 0.05% NP40, 1 mM DTT, 30 min at 4 °C; SDS-PAGE, Coomassie
Conditions: both partners purified

B1: Trx-NVL^167–216 (domain or fragment, human, UniProt O15381 167-216, looked up)
chain: KDSEGGWFIDKTPSVKKDSFFLDLSCEKSNPKKPITEIQDSKDSSLLESD
notes: source: E. coli BL21 star (DE3), purified (Ni-NTA, SEC); not shown: 6xHis-Trx, N-terminal, kept
B1: binds.
